The values below come from patent US20180186877A1 (NATIONAL CEREBRAL AND CARDIOVASCULAR CENTER, published 2018).

The experiment deals with Epitope-tagged recombinant LOX-1 protein (NM002543, aa 61-273, 6xHis); pcDNA4, Igk secretion signal; secreted … (UniProt P78380 61-273). As to the kind of experiment: SPR (Biacore), FVa immobilised on the chip, LOX-1 0-400 nM flowed; equilibrium (Req) analysis. The method, then:
Note that the Igκ secretion signal was obtained by pSecTag/FRT/V5-HisTOPO (Invitrogen). […] The surface plasmon resonance was performed using Biacore (manufactured by GE Healthcare, Inc.).
Background: In SPR one partner is held on a chip, and binding of the other changes the refractive index at the surface.

For orientation: Kd means the constant that tells how readily two partners part at equilibrium.

B1: Human Factor Va (HCVA-0110, Haematologic Technologies Inc.) (other)
H chain: AQLRQFYVAAQGISWSYRPEPTNSSLNLSVTSFKKIVYREYEPYFKKEKPQSTISGLLGPTLYAEVGDIIKVHFKNKADKPLSIHPQGIRYSKLSEGASYLDHTFPAEKMDDAVAPGREYTYEWSISEDSGPTHDDPPCLTHIYYSHENLIEDFNSGLIGPLLICKKGTLTEGGTQKTFDKQIVLLFAVFDESKSWSQSSSLMYTVNGYVNGTMPDITVCAHDHISWHLLGMSSGPELFSIHFNGQVLEQNHHKVSAITLVSATSTTANMTVGPEGKWIISSLTPKHLQAGMQAYIDIKNCPKKTRNLKKITREQRRHMKRWEYFIAAEEVIWDYAPVIPANMDKKYRSQHLDNFSNQIGKHYKKVMYTQYEDESFTKHTVNPNMKEDGILGPIIRAQVRDTLKIVFKNMASRPYSIYPHGVTFSPYEDEVNSSFTSGRNNTMIRAVQPGETYTYKWNILEFDEPTENDAQCLTRPYYSDVDIMRDIASGLIGLLLICKSRSLDRRGIQRAADIEQQAVFAVFDENKSWYLEDNINKFCENPDEVKRDDPKFYESNIMSTINGYVPESITTLGFCFDDTVQWHFCSVGTQNEILTIHFTGHSFIYGKRHEDTLTLFPMRGESVTVTMDNVGTWMLTSMNSSPRSKKLRLKFRDVKCIPDDDEDSYEIFEPPESTVMATRKMHDRLEPEDEESDADYDYQNRLAAALGIR
L chain: SNNGNRRNYYIAAEEISWDYSEFVQRETDIEDSDDIPEDTTYKKVVFRKYLDSTFTKRDPRGEYEEHLGILGPIIRAEVDDVIQVRFKNLASRPYSLHAHGLSYEKSSEGKTYEDDSPEWFKEDNAVQPNSSYTYVWHATERSGPESPGSACRAWAYYSAVNPEKDIHSGLIGPLLICQKGILHKDSNMPMDMREFVLLFMTFDEKKSWYYEKKSRSSWRLTSSEMKKSHEFHAINGMIYSLPGLKMYEQEWVRLHLLNIGGSQDIHVVHFHGQTLLENGNKQHQLGVWPLLPGSFKTLEMKASKPGWWLLNTEVGENQRAGMQTPFLIMDRDCRMPMGLSTGIISDSQIKASEFLGYWEPRLARLNNGGSYNAWSVEKLAAEFASKPWIQVDMQKEVIITGIQTQGAKHYLKSCYTTEFYVAYSSNQINWQIFKGNSTRNVMYFNGNSDASTIKENQFDPPIVARYIRISPTRAYNRPTLRLELQGCEVNGCSTPLGMENGKIENKQITASSFKKSWWGDYWEPFRARLNAQGRVNAWQAKANNNKQWLEIDLLKIKKITAIITQGCKSLSSEMYVKSYTIHYSEQGVEWKPYRLKSSMVDKIFEGNTNTKGHVKNFFNPPIISRFIRVIPKTWNQSIALRLELFGCDIY
modifications: Two-chain, plasma-derived glycoprotein. The H and L chains are held together non-covalently through Ca2+. Glycosylation and tyrosine sulfation are not carried by the letters.
notes: also called FVa
As to B1, the Kd came to 22.1 nM.
